Patent US20220332800A1 (Takeda / Millennium, published 2022)

Key:
[1] = target: T1, ZIKV-VLP (Native Antigen Inc.) (Zika virus); experiment: BLI binning on ZIKV-VLP; 1st mAb: 102-1
T1 construct: also called Zika VLP; ZVLP

[2] = target: T1, ZIKV-VLP (Native Antigen Inc.); experiment: BLI binning on ZIKV-VLP; 1st mAb: Ab2
[3] = target: T1, ZIKV-VLP (Native Antigen Inc.); experiment: BLI binning on ZIKV-VLP; 1st mAb: 4G2
[4] = target: T1, ZIKV-VLP (Native Antigen Inc.); experiment: BLI binning on ZIKV-VLP; 1st mAb (row): 289-3
[5] = target: T1, ZIKV-VLP (Native Antigen Inc.); experiment: BLI binning on ZIKV-VLP; 1st mAb: 181-4
[6] = target: T1, ZIKV-VLP (Native Antigen Inc.); experiment: BLI binning on ZIKV-VLP; 1st mAb: Ab1
[7] = target: T1, ZIKV-VLP (Native Antigen Inc.); experiment: BLI binning on ZIKV-VLP; 1st mAb: 11-3
[8] = target: T1, ZIKV-VLP (Native Antigen Inc.); experiment: BLI binning on ZIKV-VLP; 1st mAb: C10
[9] = target: T1, ZIKV-VLP (Native Antigen Inc.); experiment: ELISA, hybridoma supernatant (Abcam data)
[10] = target: T1, ZIKV-VLP (Native Antigen Inc.); experiment: BLI binning on ZIKV-VLP; 1st mAb: 78-2
[11] = target: T1, ZIKV-VLP (Native Antigen Inc.); experiment: BLI binning on ZIKV-VLP; 1st mAb: 306-2
[12] = target: T1, ZIKV-VLP (Native Antigen Inc.); experiment: BLI binning on ZIKV-VLP; 1st mAb (row): 306-2
[13] = target: T1, ZIKV-VLP (Native Antigen Inc.); experiment: BLI binning on ZIKV-VLP; 1st mAb (row): C10
[14] = target: T1, ZIKV-VLP (Native Antigen Inc.); experiment: BLI binning on ZIKV-VLP; 1st mAb (row): 242-3
[15] = target: T1, ZIKV-VLP (Native Antigen Inc.); experiment: BLI binning on ZIKV-VLP; 1st mAb (row): 270-12
[16] = target: T1, ZIKV-VLP (Native Antigen Inc.); experiment: BLI binning on ZIKV-VLP; 1st mAb (row): 102-1
[17] = target: T1, ZIKV-VLP (Native Antigen Inc.); experiment: indirect ELISA, subclone supernatant
[18] = target: T1, ZIKV-VLP (Native Antigen Inc.); experiment: BLI binning on ZIKV-VLP; 1st mAb: 289-3
[19] = target: T1, ZIKV-VLP (Native Antigen Inc.); experiment: ELISA, purified recombinant mAb
[20] = target: T1, ZIKV-VLP (Native Antigen Inc.); experiment: BLI binning on ZIKV-VLP; 1st mAb: 329-2
[21] = target: T1, ZIKV-VLP (Native Antigen Inc.); experiment: BLI binning on ZIKV-VLP; 1st mAb: 242-3
[22] = target: T1, ZIKV-VLP (Native Antigen Inc.); experiment: indirect ELISA, purified antibody serially diluted from 10 µg/ml
[23] = target: T1, ZIKV-VLP (Native Antigen Inc.); experiment: BLI (Octet), supernatant IgG captured on Protein A biosensor, ZIKV-VLP 3.3 µg/mL in solution, 1:1 model
[24] = target: T1, ZIKV-VLP (Native Antigen Inc.); experiment: BLI binning on ZIKV-VLP; 1st mAb: 270-12
[25] = target: T1, ZIKV-VLP (Native Antigen Inc.); experiment: BLI binning on ZIKV-VLP; 1st mAb: 260-2
[26] = target: Zika PRVABC59 live virus (Zika virus); experiment: cell-based or functional assay

B1: anti-ZIKV antibody 289-3 (antibody, V domains shown)
VH: QEELEESGGDLVKPGASLTLTCKASGFSFSSGAYICWVRQAPGKGPEWIACIYTGDGRTYYANWAKRRFTISSSSSTTVALEMPSLTDADTATYFCARAIAVGAGYGVGNYFTLWGPGTLVTVSS
VL: DIVMTQTPSSVSAAVGGTVTINCHASENIYGYLSWYQQKPGQPPKLLIYKASTLASGVPSRFKGSGAGTQFTLTITALECADAATYYCQSYYTSSSNADGSENAFGGGTEVVVEG
notes: also called clone 289-3; subclone 289-3
- response of 2nd mAb [1]: 0.09
- response of 2nd mAb [2]: 3.79
- response of 2nd mAb [3]: 1.04
- response of 2nd mAb [4]: 0.0128
- response of 2nd mAb [5]: 0.01
- response of 2nd mAb [6]: 0.4
- response of 2nd mAb [7]: 0.52
- response of 2nd mAb [8]: 4.55
- OD [9]: 0.94 OD
- response of 2nd mAb [10]: 0.46
- response of 2nd mAb [11]: 0.24
- response of 2nd mAb [12]: 0.0428
- response of 2nd mAb [13]: 0.0265
- response of 2nd mAb [14]: 0.0011
- response of 2nd mAb [15]: 0.0064
- response of 2nd mAb [16]: 0.0047
- VLP (OD) binding [17]: 0.94 OD
- response of 2nd mAb [18]: 0.02
- ELISA OD [19]: 3.21 OD
- response of 2nd mAb [20]: -0.01
- response of 2nd mAb [21]: 0.07
- EC50 [22]: 0.00724 µg/mL
- koff [23]: 0.000113 s⁻¹
- response of 2nd mAb [24]: 0.02
- response of 2nd mAb [25]: 0.04

B2: anti-ZIKV antibody 181-4/329-2 (antibody)
heavy: QAQLEESGGDLVKPEGSLTLTCTASGFSFTDRHYMCWVRQAPGKGLEWIACVYPGSSGSTYYASWARGRFTISKTSSTTVTLRMTSLTAADTATYFCARSSYPDSSGYSYGMDLWGPGTLVTVSSGQPKAPSVFPLAPCCGDTPSSTVTLGCLVKGYLPEPVTVTWNSGTLTNGVRTFPSVRQSSGLYSLSSVVSVTSSSQPVTCNVAHPATNTKVDKTVAPSTCSKPTCPPPELLGGPSVFIFPPKPKDTLMISRTPEVTCVVVDVSQDDPEVQFTWYINNEQVRTARPPLREQQFNSTIRVVSTLPIAHQDWLRGKEFKCKVHNKALPAPIEKTISKARGQPLEPKVYTMGPPREELSSRSVSLTCMINGFYPSDISVEWEKNGKAEDNYKTTPAVLDSDGSYFLYSKLSVPTSEWQRGDVFTCSVMHEALHNHYTQKSISRSPGK
light: DIVMTQTPASVEAAVGGTVTIKCQASQNINSNLAWYQQKPGQRPKFLMYLTSKLASGVPSRFRGSGSGTQFTLTISDLECADAATYYCQTYYDISNYGYAFGGGTEVVVKGDPVAPTVLIFPPAADQVATGTVTIVCVANKYFPDVTVTWEVDGTTQTTGIENSKTPQNSADCTYNLSSTLTLTSTQYNSHKEYTCKVTQGTTSVVQSFNRGDC
- MNT IC50 (ng/mL) of Purified antibody [26]: 26.7 ng/mL
- response of 2nd mAb [21]: 0.01
- EC50 [22]: 0.0114 µg/mL
- koff [23]: < 1e-07 s⁻¹

B3: anti-ZIKV antibody 260-3 (antibody)
heavy: QAQLEESGGDLVKPEGSLTLTCTASGFSFTDRHYMCWVRQAPGKGLEWIACVYPGSSGSTYYASWARGRFTISKTSSTTVTLRMTSLTAADTATYFCARSSYPDSSGYSYGMDLWGPGTLVTVPSGQPKAPSVFPLAPCCGDTPSSTVTLGCLVKGYLPEPVTVTWNSGTLTNGVRTFPSVRQSSGLYSLSSVVSVTSSSQPVTCNVAHPATNTKVDKTVAPSTCSKPTCPPPELLGGPSVFIFPPKPKDTLMISRTPEVTCVVVDVSQDDPEVQFTWYINNEQVRTARPPLREQQFNSTIRVVSTLPIAHQDWLRGKEFKCKVHNKALPAPIEKTISKARGQPLEPKVYTMGPPREELSSRSVSLTCMINGFYPSDISVEWEKNGKAEDNYKTTPAVLDSDGSYFLYSKLSVPTSEWQRGDVFTCSVMHEALHNHYTQKSISRSPGK
light: DIVMTQTPASVEAAVGGTVTIKCQASQNINSNLAWYQQKPGQRPKFLMYLTSKLASGVPSRFRGSGSGTQFTLTISDLECADAATYYCQTYYDISNYGYAFGGGTEVVVKGDPVAPTVLIFPPAADQVATGTVTIVCVANKYFPDVTVTWEVDGTTQTTGIENSKTPQNSADCTYNLSSTLTLTSTQYNSHKEYTCKVTQGTTSVVQSFNRGDC
notes: also called clone 260-3
- response of 2nd mAb [1]: 0.03
- response of 2nd mAb [2]: 4.96
- response of 2nd mAb [3]: 0.67
- response of 2nd mAb [5]: 0
- response of 2nd mAb [6]: 0.32
- response of 2nd mAb [7]: 0.36
- response of 2nd mAb [8]: 4.06
- response of 2nd mAb [10]: 0.33
- response of 2nd mAb [11]: 0.32
- MNT IC50 (ng/mL) of Purified antibody [26]: 19.9 ng/mL
- response of 2nd mAb [18]: -0.03
- response of 2nd mAb [20]: 0.01
- response of 2nd mAb [21]: 0.01
- EC50 [22]: 0.00793 µg/mL
- koff [23]: < 1e-07 s⁻¹
- response of 2nd mAb [24]: 0.01
- response of 2nd mAb [25]: 0
